In the supplement of paper PMC9112550, “Optimization of the antimicrobial peptide Bac7 by deep mutational scanning” (BMC Biology, 2022):

Test system: Escherichia coli TOP10
Assay: shrunken log2 fold change of peptide-encoding DNA abundance (4.5 h post-induction vs induction); higher = less antimicrobial activity (less host growth inhibition)
Settings: time post-induction: 4.5 h; library: site-saturation at positions 5, 18, 19, 20
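Also: peptides expressed intracellularly from a pBAD plasmid library in pooled LB shake-flask culture, induced with 0.3% L-arabinose, DNA abundance read by NGS, three biological replicates, DESeq2 with apeglm shrinkage.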

Row | Sequence | shrunken log2 fold change
1 | RRIRWRPPRLPRPRPRPIGQPRP | 0.00299
2 | RRIRYRPPRLPRPRPRPRNKPRP | -0.661
3 | RRIRYRPPRLPRPRPRPQWWPRP | 0.0898
4 | RRIRIRPPRLPRPRPRPCNAPRP | -0.0751
5 | RRIRHRPPRLPRPRPRPTSHPRP | -0.837
6 | RRIRTRPPRLPRPRPRPADLPRP | 0.0274
7 | RRIRDRPPRLPRPRPRPWCYPRP | 0.155
8 | RRIRIRPPRLPRPRPRPQHLPRP | -0.542
9 | RRIRFRPPRLPRPRPRPVLRPRP | 0.113
10 | RRIRYRPPRLPRPRPRPDNCPRP | -0.0299
11 | RRIRKRPPRLPRPRPRPWEQPRP | 0.0133
12 | RRIRLRPPRLPRPRPRPYMYPRP | -0.759
13 | RRIRYRPPRLPRPRPRPYNDPRP | -0.0979
14 | RRIRARPPRLPRPRPRPPKTPRP | 0.12
15 | RRIRWRPPRLPRPRPRPEWFPRP | 0.395
16 | RRIRNRPPRLPRPRPRPFWPPRP | 0.226
17 | RRIRNRPPRLPRPRPRPGKMPRP | -0.203
18 | RRIRMRPPRLPRPRPRPMCHPRP | 0.0525
19 | RRIRTRPPRLPRPRPRPLWSPRP | 0.0357
20 | RRIRHRPPRLPRPRPRPSAEPRP | 0.217
21 | RRIRIRPPRLPRPRPRPALCPRP | 0.0482
22 | RRIRQRPPRLPRPRPRPSGAPRP | 0.054
23 | RRIRTRPPRLPRPRPRPRCWPRP | 0.386
24 | RRIRRRPPRLPRPRPRPWMCPRP | 0.214
25 | RRIRLRPPRLPRPRPRPNDSPRP | -0.0215

Row | Sequence | shrunken log2 fold change
26 | RRIRERPPRLPRPRPRPHAYPRP | -0.352
27 | RRIRNRPPRLPRPRPRPVDFPRP | -0.262
28 | RRIRTRPPRLPRPRPRPRLYPRP | 0.0155
29 | RRIRMRPPRLPRPRPRPYPTPRP | -0.114
30 | RRIRCRPPRLPRPRPRPFHEPRP | -0.917
31 | RRIRQRPPRLPRPRPRPNESPRP | -0.0813
32 | RRIRPRPPRLPRPRPRPNFEPRP | 0.275
33 | RRIRQRPPRLPRPRPRPEDMPRP | 0.0353
34 | RRIRCRPPRLPRPRPRPLCHPRP | -0.213
35 | RRIRSRPPRLPRPRPRPKLLPRP | 0.325
36 | RRIRVRPPRLPRPRPRPLEAPRP | 0.242
37 | RRIRIRPPRLPRPRPRPPCGPRP | -0.239
38 | RRIRLRPPRLPRPRPRPEVCPRP | -0.0515
39 | RRIRCRPPRLPRPRPRPPCPPRP | 0.487
40 | RRIRSRPPRLPRPRPRPAVMPRP | 0.139
41 | RRIRTRPPRLPRPRPRPEVDPRP | 0.036
42 | RRIRQRPPRLPRPRPRPEKMPRP | -0.145
43 | RRIRFRPPRLPRPRPRPAPFPRP | -0.236
44 | RRIRCRPPRLPRPRPRPMFDPRP | -0.246
45 | RRIRVRPPRLPRPRPRPDSWPRP | -0.0688
46 | RRIRIRPPRLPRPRPRPDYYPRP | -0.155
47 | RRIRARPPRLPRPRPRPLVCPRP | 0.483
48 | RRIRYRPPRLPRPRPRPMIHPRP | -0.0658
49 | RRIRLRPPRLPRPRPRPNQPPRP | 0.0224
50 | RRIRPRPPRLPRPRPRPFSSPRP | -0.322

Row | Sequence | shrunken log2 fold change
51 | RRIRARPPRLPRPRPRPLEQPRP | 0.156
52 | RRIRSRPPRLPRPRPRPHRPPRP | 0.0831
53 | RRIRVRPPRLPRPRPRPEWRPRP | 0.212
54 | RRIRMRPPRLPRPRPRPVTNPRP | 0.0903
55 | RRIRCRPPRLPRPRPRPVCSPRP | -0.0747
56 | RRIRNRPPRLPRPRPRPPCPPRP | 0.309
57 | RRIRVRPPRLPRPRPRPTYKPRP | -0.512
58 | RRIRPRPPRLPRPRPRPKALPRP | 0.461
59 | RRIRMRPPRLPRPRPRPNPVPRP | -0.0385
60 | RRIRMRPPRLPRPRPRPLKDPRP | 0.0898
61 | RRIRRRPPRLPRPRPRPLQHPRP | 0.387
62 | RRIRHRPPRLPRPRPRPEQWPRP | 0.0101
63 | RRIRNRPPRLPRPRPRPLTDPRP | -0.193
64 | RRIRIRPPRLPRPRPRPESAPRP | 0.0116
65 | RRIRNRPPRLPRPRPRPTSGPRP | 0.211
66 | RRIRVRPPRLPRPRPRPMCCPRP | -0.0676
67 | RRIRYRPPRLPRPRPRPNMRPRP | 0.117
68 | RRIRTRPPRLPRPRPRPKRAPRP | 0.273
69 | RRIRFRPPRLPRPRPRPLWCPRP | -0.0894
70 | RRIRTRPPRLPRPRPRPWGTPRP | -0.11
71 | RRIRKRPPRLPRPRPRPRFNPRP | 0.0969
72 | RRIRVRPPRLPRPRPRPCPYPRP | -1.14
73 | RRIRCRPPRLPRPRPRPQFPPRP | -0.17
74 | RRIRYRPPRLPRPRPRPAIFPRP | -0.0382
75 | RRIRHRPPRLPRPRPRPRWHPRP | 0.102
